Here are results for six molecules from publication PMC9151340.

Residue numbers refer to the chain shown, from its start.

The target of data set [1] is T1, MtrA (UniProt F2R521 1-225).
T1 sequence: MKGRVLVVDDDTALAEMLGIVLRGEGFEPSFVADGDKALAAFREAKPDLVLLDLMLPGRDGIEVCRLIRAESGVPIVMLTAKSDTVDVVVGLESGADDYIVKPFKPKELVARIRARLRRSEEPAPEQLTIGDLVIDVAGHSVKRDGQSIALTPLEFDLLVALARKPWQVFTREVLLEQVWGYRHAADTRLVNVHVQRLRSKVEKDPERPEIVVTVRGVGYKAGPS
As to the kind of experiment: EMSA. A general note: A gel shift assay detects complexes by their altered migration in electrophoresis.

Data set [2] addresses T2, GlnR (UniProt F2RFQ1 1-276).
T2 sequence: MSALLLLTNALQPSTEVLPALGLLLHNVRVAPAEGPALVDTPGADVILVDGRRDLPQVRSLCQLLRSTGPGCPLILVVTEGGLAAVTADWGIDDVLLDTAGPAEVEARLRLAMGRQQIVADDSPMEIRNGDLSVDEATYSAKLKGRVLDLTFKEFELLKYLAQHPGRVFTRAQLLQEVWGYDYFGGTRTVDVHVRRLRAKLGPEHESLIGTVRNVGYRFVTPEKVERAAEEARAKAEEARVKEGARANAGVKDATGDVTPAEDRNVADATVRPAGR
Briefly: EMSA.

B1: nirB-WT (dsDNA)
DNA 1: GGAGATCAGCGTTCCGTACGGGAAACAGTCGGGATGCCGCCGGGTAACACCGGCCGCGC
DNA 2: GCGCGGCCGGTGTTACCCGGCGGCATCCCGACTGTTTCCCGTACGGAACGCTGATCTCC
With B1, the binding result in data set [1] is on record as “binds”.

B2: SVEN1860 WT (dsDNA)
DNA 1: GTTTCATCAGTGTTTGACCACCGGGTCACGCCCTGGTAACACCAGTCTGTGAGCCTGGT
DNA 2: ACCAGGCTCACAGACTGGTGTTACCAGGGCGTGACCCGGTGGTCAAACACTGATGAAAC
With B2, the binding result in data set [1] is “binds”.

B3: mtrA WT (SVEN2756 WT) (dsDNA)
DNA 1: TACGGTGCAGGCCGACCACGGGGGCCCACGGGGGTGACATCCATGTCTGGCATCAACAC
DNA 2: GTGTTGATGCCAGACATGGATGTCACCCCCGTGGGCCCCCGTGGTCGGCCTGCACCGTA
As for B3, the binding result in data set [2] and in data set [1] was “binds” in each case.

B4: mtrA M1 (SVEN2756 M1) (dsDNA)
DNA 1: B3 DNA 1 with G34A, T35G, A37C, C38T
DNA 2: B3 DNA 2 with G22A, T23G, A25C, C26T
Consider B4, for which the binding result in data set [1] is given as “no binding”.

B5: mtrA M2 (SVEN2756 M2) (dsDNA)
DNA 1: B3 DNA 1 with G45A, T46C, C47T
DNA 2: B3 DNA 2 with G13A, A14G, C15T
Regarding B5, the binding result in data set [1] is on record as “no binding”.

B6: mtrA M3 (SVEN2756 M3) (dsDNA)
DNA 1: B3 DNA 1 with G34A, T35G, A37C, C38T, G45A, T46C, C47T
DNA 2: B3 DNA 2 with G13A, A14G, C15T, G22A, T23G, A25C, C26T
As for B6, the binding result in data set [1] is recorded as “no binding”.
